Experimental data taken from PMC4961225, “The Molecular Basis for Ubiquitin and Ubiquitin-like Specificities in Bacterial Effector Proteases” (Molecular Cell, 2016).

Target: T1, ubiquitin (uniformly 15N-labeled Ub) (UniProt P0CG48 1-76)
T1 construct: also called 15N-Ub
Experiment: NMR titration; uniformly 15N-labeled Ub observed (1H,15N-HSQC TROSY; 80 μM Ub in Figure 6), unlabeled partner added; 25°C
Settings: both partners purified

B1: SseL (aa 24–340) (domain or fragment)
chain: VSDEALTLLFSAVENGDQNCIDLLCNLALRNDDLGHRVEKFLFDLFSGKRTGSSDIDKKINQACLVLHQIANNDITKDNTEWKKLHAPSRLLYMAGSATTDLSKKIGIAHKIMGDQFAQTDQEQVGVENLWCGARMLSSDELAAATQGLVQESPLLSVNYPIGLIHPTTKENILSTQLLEKIAQSGLSHNEVFLVNTGDHWLLCLFYKLAEKIKCLIFNTYYDLNENTKQEIIEAAKIAGISESDEVNFIEMNLQNNVPNGCGLFCYHTIQLLSNAGQNDPATTLREFAENFLTLSVEEQALFNTQTRRQIYEYSLQ
binding result: binds
